Experimental data published in paper PMC10662749.
“Also recorded” adds a separate entry of the source.

Conditions: glycan changed form

Substance	other: proteolytic processing	other: pseudovirus infectivity, fold_change	other: pseudovirus infectivity	other: neutralisation sensitivity, other: maximum % neutralisation
SARS-CoV-2 spike, BA.1 (Omicron): GnTI- cells	no change	abolishes	–	–
SARS-CoV-2 spike, B.1.617.2 (Delta): 50 μM kifunensine	no change	–	decreases	–
SARS-CoV-2 spike, D614G: 20 μM swainsonine	–	–	no change	–
SARS-CoV-2 spike, B.1.617.2 (Delta): 20 μM swainsonine	–	–	no change	–
SARS-CoV-2 spike, BA.1 (Omicron): 20 μM swainsonine	no change	no change	–	no change, 74 ± 7 vs 54 ± 7
SARS-CoV-2 spike, B.1.617.2 (Delta): GnTI- cells	no change	–	decreases	–
SARS-CoV-2 spike, BA.1 (Omicron): 50 μM kifunensine	no change	abolishes	–	–
SARS-CoV-2 spike, D614G: 50 μM kifunensine	no change	–	decreases	no change, 55 ± 9 vs 64 ± 4

Same assay, conditions: glycan lost

Substance	other: pseudovirus infectivity, fold_change	other: neutralisation sensitivity	other: neutralisation sensitivity, other: maximum % neutralisation	other: pseudovirus particle yield (p24)	other: proteolytic processing	other: pseudovirus infectivity	other: neutralisation sensitivity, fold_change
SARS-CoV-2 spike, BA.4 (Omicron): N717Q	abolishes	–	–	–	–	–	–
SARS-CoV-2 spike, BA.1 (Omicron): N61Q	–	no change	no change, 73 ± 10 vs 79 ± 7	–	–	–	–
SARS-CoV-2 spike, BA.1 (Omicron): N331Q	–	no change	–	–	–	–	–
SARS-CoV-2 spike, D614G: N165Q	–	no change	–	–	–	–	–
SARS-CoV-2 spike, BA.1 (Omicron): N343Q	–	no change	no change, 82 ± 6 vs 79 ± 7	–	–	–	–
SARS-CoV-2 spike, D614G: N1194Q	–	no change	no change, 66 ± 3 vs 64 ± 4; also recorded: no change, 60 ± 3 vs 65 ± 7	–	–	–	–
SARS-CoV-2 spike, BA.1 (Omicron): N801A	abolishes	–	–	–	–	–	–
SARS-CoV-2 spike, BA.1 (Omicron): N1173Q	–	no change	no change, 80 ± 9 vs 79 ± 7	–	–	–	–
SARS-CoV-2 spike, D614G: N717Q	decreases	no change	no change, 67 ± 9 vs 64 ± 4; also recorded: decreases, 43 ± 6 vs 65 ± 7	–	–	–	–
SARS-CoV-2 spike, BA.1 (Omicron): N165Q	–	no change	no change, 79 ± 7 vs 79 ± 7	–	–	–	–
SARS-CoV-2 spike, BA.1 (Omicron): N1194Q	–	no change	no change, 75 ± 11 vs 79 ± 7	–	–	–	–
SARS-CoV-2 spike, BA.1 (Omicron): N1098Q	–	no change	no change, 85 ± 7 vs 79 ± 7	decreases	–	–	–
SARS-CoV-2 spike, BA.1 (Omicron): N17Q	–	no change	–	–	–	–	–
SARS-CoV-2 spike, BA.1 (Omicron): N1158Q	–	no change	no change, 86 ± 34 vs 79 ± 7	–	–	–	–
SARS-CoV-2 spike, BA.1 (Omicron): N282Q	–	no change	–	–	–	–	–
SARS-CoV-2 spike, BQ.1.1 (Omicron): N801Q	abolishes	–	–	–	–	–	–
SARS-CoV-2 spike, D614G: N343Q	decreases	no change	–	–	–	–	–
SARS-CoV-2 spike, D614G: N657Q	–	no change	no change, 58 ± 4 vs 64 ± 4	–	–	–	–
SARS-CoV-2 spike, D614G: N331Q	–	no change	no change, 60 ± 4 vs 64 ± 4	–	–	–	–
SARS-CoV-2 spike, D614G: N74Q	–	no change	no change, 62 ± 3 vs 64 ± 4	–	–	–	–
SARS-CoV-2 spike, BA.1 (Omicron): N709Q	–	no change	–	–	–	–	–
SARS-CoV-2 spike, BA.1 (Omicron): N717A	decreases	–	–	–	–	–	–
SARS-CoV-2 spike, BA.1 (Omicron): N801Q	–	–	–	–	decreases	–	–
SARS-CoV-2 spike, B.1.617.2 (Delta): N801Q	–	–	–	–	–	no change	–
SARS-CoV-2 spike, BA.1 (Omicron): N1074Q	–	no change	no change, 86 ± 13 vs 79 ± 7	decreases	–	–	–
SARS-CoV-2 spike, D614G: N709Q	–	no change	no change, 69 ± 6 vs 64 ± 4	–	–	–	–

Substance	other: pseudovirus infectivity, fold_change	other: neutralisation sensitivity	other: neutralisation sensitivity, other: maximum % neutralisation	other: pseudovirus particle yield (p24)	other: proteolytic processing	other: pseudovirus infectivity	other: neutralisation sensitivity, fold_change
SARS-CoV-2 spike, D614G: N1134Q	–	no change	no change, 65 ± 5 vs 64 ± 4; also recorded: no change, 65 ± 4 vs 65 ± 7	–	–	–	–
SARS-CoV-2 spike, BA.4 (Omicron): N801Q	abolishes	–	–	–	–	–	–
SARS-CoV-2 spike, BA.1 (Omicron): N1134Q	–	no change	no change, 73 ± 15 vs 79 ± 7	–	–	–	–
SARS-CoV-2 spike, D614G: N603Q	–	no change	no change, 62 ± 3 vs 64 ± 4	–	–	–	–
SARS-CoV-2 spike, BQ.1.1 (Omicron): N717Q	abolishes	–	–	–	–	–	–
SARS-CoV-2 spike, D614G: N61Q	decreases	no change	no change, 61 ± 4 vs 64 ± 4	–	decreases	–	–
SARS-CoV-2 spike, BA.1 (Omicron): N122Q	–	no change	decreases, 36 ± 19 vs 79 ± 7	–	–	–	–
SARS-CoV-2 spike, D614G: N17Q	–	no change	–	–	–	–	–
SARS-CoV-2 spike, D614G: N122Q	decreases	no change	no change, 62 ± 9 vs 64 ± 4; also recorded: decreases, 29 ± 4 vs 65 ± 7	–	–	–	–
SARS-CoV-2 spike, D614G: N1173Q	–	no change	no change, 73 ± 14 vs 64 ± 4; also recorded: decreases, 50 ± 5 vs 65 ± 7	–	–	–	–
SARS-CoV-2 spike, B.1.617.2 (Delta): N717Q	–	–	–	–	–	no change	–
SARS-CoV-2 spike, BA.1 (Omicron): N616Q	–	no change	–	–	–	–	–
SARS-CoV-2 spike, BA.1 (Omicron): N234Q	–	–	no change, 87 ± 4 vs 79 ± 7	–	–	–	–
SARS-CoV-2 spike, BA.1 (Omicron): N717Q	–	–	–	–	decreases	–	–
SARS-CoV-2 spike, D614G: N282Q	–	no change	–	–	–	–	decreases
SARS-CoV-2 spike, D614G: N616Q	–	no change	no change, 64 ± 7 vs 64 ± 4	–	–	–	–
SARS-CoV-2 spike, D614G: N801Q	decreases	no change	no change, 63 ± 4 vs 64 ± 4; also recorded: no change, 74 ± 7 vs 65 ± 7	–	–	–	–
SARS-CoV-2 spike, D614G: N1158Q	–	no change	no change, 63 ± 3 vs 64 ± 4	–	–	–	–
SARS-CoV-2 spike, BA.1 (Omicron): N657Q	–	no change	–	–	–	–	–
SARS-CoV-2 spike, D614G: N234Q	–	–	–	–	–	–	decreases
SARS-CoV-2 spike, D614G: N1098Q	–	no change	no change, 69 ± 11 vs 64 ± 4	–	–	–	–
SARS-CoV-2 spike, BA.1 (Omicron): N149Q	–	no change	–	–	–	–	–
SARS-CoV-2 spike, D614G: N1074Q	decreases	no change	no change, 61 ± 4 vs 64 ± 4; also recorded: decreases, 45 ± 6 vs 65 ± 7	–	–	–	–
SARS-CoV-2 spike, BA.1 (Omicron): N603Q	–	no change	–	–	–	–	–
SARS-CoV-2 spike, D614G: N149Q	–	no change	–	–	–	–	–
SARS-CoV-2 spike, BA.1 (Omicron): N74Q	–	no change	no change, 77 ± 9 vs 79 ± 7	–	–	–	–
